± gives the standard deviation of the averaged measurements.
These sequences were tested on Saccharomyces cerevisiae (assay: protein stability index of tFT-peptide fusion (C-terminal peptide) (PSI (0-1 scale)); higher = more stable (slower turnover)). Conditions: genetic background: doa10 deletion; temperature: 30 C.
Description: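 MPS profiling in S. cerevisiae of the tFT-X12 degron library: putative degron peptides plus stable controls, 12 aa, fused to the C-terminus of a sfGFP-mCherry timer. Cells are FACS-sorted into 8 mCherry/sfGFP bins and deep-sequenced. PSI runs from 0 (unstable) to 1 (stable). Backgrounds are wild type, das1Δ and doa10Δ at 30 °C, and wild type, das1Δ, cdc34-1 and cdc53-1 at 37 °C; 2-3 technical replicates each.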
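Further: PSI is a weighted mean of sequencing reads over stability bins, variants kept only with over 10 reads, mCherry proximal and sfGFP distal, peptide attached via GGGS linker.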

Sequence | protein stability index
KYCPCIPLLIAL | 0.387 ± 0.013
LAVRSGFPFGLF | 0.117 ± 0.017
LCLLHCSICISF | 0.285 ± 0.015
LCLLIHFWISHL | 0.167 ± 0.0048
LCVFFRCFFVGG | 0.433 ± 0.017
LCWRLCRFWWVG | 0.255 ± 0.0076
LDHGRVVWVVVS | 0.174 ± 0.011
LDRLTTWTLIVR | 0.413 ± 0.0057
LERLHSVLLLTS | 0.165 ± 0.019
LFFLPPCYWFLL | 0.384 ± 0.034
LFFWWVAVVFRV | 0.204 ± 0.016
LFLVFIGLFFLT | 0.338 ± 0.011
LFRFSRLFLFVL | 0.214 ± 0.042
LFRRMWVEIFYV | 0.0969 ± 0.016
LGKSTLYMALNN | 0.273 ± 0.013
LGVLVVCFNATY | 0.2506 ± 0.00074
LHLTFRLAVLYY | 0.317 ± 0.029
LIIVFGFTSILR | 0.355 ± 0.015
LIPFPGFFILLT | 0.49 ± 0.023
LISRGNRALFCI | 0.204 ± 0.015
LLAREILVIVAV | 0.166 ± 0.0048
LLCLAVVLWFVV | 0.212 ± 0.012
LLCSPPPLTVPA | 0.275 ± 0.0087
LLFVLWLSFFVL | 0.239 ± 0.0027
LLGDFAVLTCVF | 0.343 ± 0.0054
LLGGFAAFWRIL | 0.135 ± 0.015

Sequence | protein stability index
LLLFLHILRYVF | 0.398 ± 0.025
LLLFLHSTLTCR | 0.383 ± 0.011
LLLLASLFFRLA | 0.177 ± 0.011
LLLPVFLVFSVS | 0.2258 ± 0.0016
LLLSLLVLRFFL | 0.5037 ± 0.0014
LLMPLLLHSLVW | 0.308 ± 0.0067
LLPSNFLLLVGV | 0.208 ± 0.012
LMIVSVRLLFFL | 0.1617 ± 0.00049
LPAICFWCVLVG | 0.133 ± 0.024
LPNLPPTSPERH | 0.6558 ± 0.0059
LPPSPPCQSPAL | 0.681 ± 0.03
LPPYPPPVPILI | 0.322 ± 0.0038
LPSLRPPPCIRA | 0.332 ± 0.041
LQYSKALAVICG | 0.19 ± 0.017
LRALGPRIYRIS | 0.194 ± 0.0089
LRLFIFLLFSVF | 0.19 ± 0.0081
LSFFFWFIFSLC | 0.344 ± 0.035
LSLFCFFLLVLF | 0.305 ± 0.0094
LSPLPSPLILVV | 0.14761 ± 5.3e-05
LSRELRFVGFYH | 0.222 ± 0.004
LSRLWVVGWVVA | 0.191 ± 0.0034
LSSIIRFLIFCL | 0.398 ± 0.031
LTIYPLTYCFVS | 0.45336 ± 0.00045
LVDSRIVWLFVS | 0.0761 ± 0.016
LVFFAYLIRGAL | 0.0526 ± 0.0068
LVGLESCGERAG | 0.643 ± 0.027

Sequence | protein stability index
LVHLVLYVAVFC | 0.2877 ± 0.0014
LVLLRLSSLTIF | 0.269 ± 0.011
LVVFLRFFLRVL | 0.175 ± 0.003
LVVGCFLTFCFG | 0.212 ± 0.0024
LWFGAWWLGAVG | 0.4166 ± 0.0011
LWGVGRQRNIAS | 0.291 ± 0.036
LWRRSLLLLRCC | 0.0637 ± 0.013
LWYVQILNIVLN | 0.233 ± 0.024
LYLEAYFCIFHF | 0.334 ± 0.017
MALAVRVVVCGA | 0.0868 ± 0.014
MAMMQTILIIIH | 0.0894 ± 0.029
MDLVSEYKIKVN | 0.176 ± 0.006
MFRSEVSWKLCC | 0.1344 ± 0.00047
MSCILFCCLVPF | 0.381 ± 0.012
NASWAFLCYFCV | 0.347 ± 0.018
NMRYRATIEACA | 0.174 ± 0.021
NTYKICVVSVTS | 0.267 ± 0.019
NYVFRIIIVLDA | 0.227 ± 0.059
PALYLSLWFLFP | 0.452 ± 0.013
PAVRRLTGLMLM | 0.276 ± 0.011
PCNVLWYSLFLF | 0.175 ± 0.018
PFAGRLWVTSSF | 0.685 ± 0.021
PFYQSGGLVVVV | 0.437 ± 0.021
PGHICVPVLGTA | 0.3072 ± 0.003
PGSIGVVIAVRS | 0.2863 ± 0.0007
PGVWVVILRWWV | 0.0879 ± 0.0095

Same assay, conditions: genetic background: wild type; temperature: 30 C

Sequence | protein stability index
KYCPCIPLLIAL | 0.329 ± 0.033
LAVRSGFPFGLF | 0.122 ± 0.03
LCLLHCSICISF | 0.295 ± 0.036
LCLLIHFWISHL | 0.173 ± 0.013
LCVFFRCFFVGG | 0.448 ± 0.018
LCWRLCRFWWVG | 0.254 ± 0.024
LDHGRVVWVVVS | 0.201 ± 0.023
LDRLTTWTLIVR | 0.365 ± 0.021
LERLHSVLLLTS | 0.217 ± 0.027
LFFLPPCYWFLL | 0.392 ± 0.03
LFFWWVAVVFRV | 0.133 ± 0.02
LFLVFIGLFFLT | 0.327 ± 0.015
LFRFSRLFLFVL | 0.153 ± 0.034
LFRRMWVEIFYV | 0.119 ± 0.0081
LGKSTLYMALNN | 0.309 ± 0.038
LGVLVVCFNATY | 0.264 ± 0.02
LHLTFRLAVLYY | 0.275 ± 0.021
LIIVFGFTSILR | 0.328 ± 0.037
LIPFPGFFILLT | 0.28 ± 0.05
LISRGNRALFCI | 0.224 ± 0.03
LLAREILVIVAV | 0.204 ± 0.015
LLCLAVVLWFVV | 0.241 ± 0.024
LLCSPPPLTVPA | 0.327 ± 0.034
LLFVLWLSFFVL | 0.247 ± 0.034
LLGDFAVLTCVF | 0.377 ± 0.027
LLGGFAAFWRIL | 0.15 ± 0.02

Sequence | protein stability index
LLLFLHILRYVF | 0.368 ± 0.016
LLLFLHSTLTCR | 0.411 ± 0.02
LLLLASLFFRLA | 0.194 ± 0.015
LLLPVFLVFSVS | 0.256 ± 0.03
LLLSLLVLRFFL | 0.357 ± 0.028
LLMPLLLHSLVW | 0.335 ± 0.0096
LLPSNFLLLVGV | 0.231 ± 0.023
LMIVSVRLLFFL | 0.172 ± 0.019
LPAICFWCVLVG | 0.162 ± 0.04
LPNLPPTSPERH | 0.659 ± 0.015
LPPSPPCQSPAL | 0.667 ± 0.019
LPPYPPPVPILI | 0.39 ± 0.026
LPSLRPPPCIRA | 0.345 ± 0.015
LQYSKALAVICG | 0.221 ± 0.033
LRALGPRIYRIS | 0.199 ± 0.012
LRLFIFLLFSVF | 0.175 ± 0.015
LSFFFWFIFSLC | 0.325 ± 0.0039
LSLFCFFLLVLF | 0.206 ± 0.03
LSPLPSPLILVV | 0.191 ± 0.034
LSRELRFVGFYH | 0.229 ± 0.054
LSRLWVVGWVVA | 0.234 ± 0.025
LSSIIRFLIFCL | 0.366 ± 0.0049
LTIYPLTYCFVS | 0.44 ± 0.023
LVDSRIVWLFVS | 0.0713 ± 0.017
LVFFAYLIRGAL | 0.0682 ± 0.0051
LVGLESCGERAG | 0.654 ± 0.0009

Sequence | protein stability index
LVHLVLYVAVFC | 0.309 ± 0.013
LVLLRLSSLTIF | 0.314 ± 0.011
LVVFLRFFLRVL | 0.114 ± 0.033
LVVGCFLTFCFG | 0.236 ± 0.038
LWFGAWWLGAVG | 0.421 ± 0.0065
LWGVGRQRNIAS | 0.304 ± 0.018
LWRRSLLLLRCC | 0.0611 ± 0.0038
LWYVQILNIVLN | 0.249 ± 0.029
LYLEAYFCIFHF | 0.327 ± 0.004
MALAVRVVVCGA | 0.107 ± 0.02
MAMMQTILIIIH | 0.119 ± 0.026
MDLVSEYKIKVN | 0.226 ± 0.038
MFRSEVSWKLCC | 0.174 ± 0.025
MSCILFCCLVPF | 0.402 ± 0.029
NASWAFLCYFCV | 0.374 ± 0.022
NMRYRATIEACA | 0.226 ± 0.029
NTYKICVVSVTS | 0.299 ± 0.035
NYVFRIIIVLDA | 0.245 ± 0.011
PALYLSLWFLFP | 0.456 ± 0.037
PAVRRLTGLMLM | 0.321 ± 0.0051
PCNVLWYSLFLF | 0.19 ± 0.017
PFAGRLWVTSSF | 0.674 ± 0.022
PFYQSGGLVVVV | 0.464 ± 0.023
PGHICVPVLGTA | 0.357 ± 0.027
PGSIGVVIAVRS | 0.363 ± 0.015
PGVWVVILRWWV | 0.0841 ± 0.034

Reference: the supplement of paper PMC10724198
